Results published in the DeepSol protein solubility set.

Experiment: soluble on expression in E. coli; label from the status in PepcDB or PDB records

Row | Sequence | soluble on expression in E. coli
1 | SLRDSFHFKTYRKRRICPTMTLVLDLDETLIYCTKKRKYHYQKEVDVLINGKYLPLYVCKRPYIDLFFSSLYPFYEIIIFTTAIKSYADTVLNIIDVDHYIDKKFYREDCYEMNEKLYIKNLTNIKKELSKIILIDDSNISGFQYPDNFFPIKKWQGDLNDNELLHLIPFFLNLRKLKDIRSLCSFRLISQKDVSKLLCTSS | not soluble
2 | SLRIREIEPIVLTSKEKGSATWASIMIVTRVITENGEVGYGEAVPTLRVISVYNAIKQVSKAYIGKEVEEVEKNYHEWYKQDFYLARSFESATAVSAIDIASWDIIGKELGAPIHKLLGGKTRDRVPVYANGWYQDCVTPEEFAEKAKDVVKMGYKALKFDPFGPYYDWIDERGLREAEERVKAVREAVGDNVDILIEHHGRFNANSAIMIAKRLEKYNPGFMEEPVHHEDVIGLRKYKASTHLRVALGERLISEKETAFYVEEGLVNILQPDLTNIGGVTVGRSVIKIAEANDVEVAFHNAFGSIQNAVEIQLSAVTQNLYLLENFYDWFPQWKRDLVYNETPVEGGHVKVPYKPGLGVSINEKIIEQLRAEPIPLDVIEEPVWVVKGTWKNYGV | not soluble
3 | SLRLPTVFRQMRPVSRVLAPHLTRAYAKDVKFGADARALMLQGVDLLADAVAVTMGPKGRTVIIEQSWGSPKVTKDGVTVAKSIDLKDKYKNIGAKLVQDVANNTNEEAGDGTTTATVLARSIAKEGFEKISKGANPVEIRRGVMLAVDAVIAELKKQSKPVTTPEEIAQVATISANGDKEIGNIISDAMKKVGRKGVITVKDGKTLNDELEIIEGMKFDRGYISPYFINTSKGQKCEFQDAYVLLSEKKISSIQSIVPALEIANAHRKPLVIIAEDVDGEALSTLVLNRLKVGLQVVAVKAPGFGDNRKNQLKDMAIATGGAVFGEEGLTLNLEDVQPHDLGKVGEVIVTKDDAMLLKGKGDKAQIEKRIQEIIEQLDVTTSEYEKEKLNERLAKLSDGVAVLKVGGTSDVEVNEKKDRVTDALNATRAAVEEGIVLGGGCALLRCIPALDSLTPANEDQKIGIEIIKRTLKIPAMTIAKNAGVEGSLIVEKIMQSSSEVGYDAMAGDFVNMVEKGIIDPTKVVRTALLDAAGVASLLTTAEVVVTEIPKEEKDPGMGAMGGMGGGMGGGMF | soluble
4 | SLSAAEADLAGKSWAPVFANKNANGDAFLVALFEKFPDSANFFADFKGKSVADIKASPKLRDHSSTIFTRLNEFVNNAANAGKMSAMLSQFAKEHVGFGVGSAQFENVRSMFPGFVASVAAPPAGADAAWTKLFGLIIDALKAAGK | soluble
5 | SLSESFPLLEKYRIGKVIGDGNFAVVKECVDRYTGKEFALKIIDKAKCCGKEHLIENEVSILRRVKHPNIIMLVEEMETATDLFLVMELVKGGDLFDAITSSTKYTERDGSAMVYNLANALRYLHSLSIVHRDIKPENLLVCEYPDGTKSLKLGDFGLATVVEGPLYTVCGTPTYVAPEIIAETGYGLKVDVWAAGVITYILLCGFPPFRSENNLQEDLFDQILAGKLEFPAPYWDNITDSAKELISQMLQVNVEARCTAGEILSHPWVSDDASQENNMQAEVTGKLKQHFNNALPKQNSTTTGVSVIMNTALDK | soluble
6 | SLSFASETKKELTNLEVKDCCINAELSALIRMNGALSFTNRHLVLDVQTENAAIARRIYTLLKKQYDVSVELLVRKKMRLKKNNVYIVRFSENAKAILEDLKILGENFVFERSISKELVKKRCCKRSYMRGAFLAGGSVNNPETSSYHLEIFSLYKEHNDSLCDLLNEFQLNSKTLERKKGYITYLKEAEKITEFLNVIGAHNSLLRFEDVRIVRDMRNSVNRLVNCETANLNKTIGASLRQVENIKYIDERIGLEALPEKLREIAQLRIDYQEVTLKELGEMVASGKISKSGINHRLRKLDEIAEQLRTGQTVTLK | soluble
7 | SLTQSLLMYMDGPEVIGSSLGSPMEMEDALSMKGTAVVPFRATQEKNVIQIEGYMPLDCMFCSQTFTHSEDLNKHVLMQHRPTLCEPAVLRVEAEYLSPLDKSQVRTEPPKEKNCKENEFSCEVCGQTFRVAFDVEIHMRTHKDSFTYGCNMCGRRFKEPWFLKNHMRTHNGKSGARSKLQQGLESSPATINEVVQVHAAESISSPYKICMVCGFLFPNKESLIEHRKVHTKKTAFGTSSAQTDSPQGGMPSSREDFLQLFNLRPKSHPETGKKPVRCIPQLDPFTTFQAWQLATKGKVAICQEVKESGQEGSTDNDDSSSEKELGETNKGSCAGLSQEKEKCKHSHGEAPSVDADPKLPSSKEKPTHCSECGKAFRTYHQLVLHSRVHKKDRRAGAESPTMSVDGRQPGTCSPDLAAPLDENGAVDRGEGGSEDGSEDGLPEGIHLDKNDDGGKIKHLTSSRECSYCGKFFRSNYYLNIHLRTHTGEKPYKCEFCEYAAAQKTSLRYHLERHHKEKQTDVAAEVKNDGKNQDTEDALLTADSAQTKNLKRFFDGAKDVTGSPPAKQLKEMPSVFQNVLGSAVLSPAHKDTQDFHKNAADDSADKVNKNPTPAYLDLLKKRSAVETQANNLICRTKADVTPPPDGSTTHNLEVSPKEKQTETAADCRYRPSVDCHEKPLNLSVGALHNCPAISLSKSLIPSITCPFCTFKTFYPEVLMMHQRLEHKYNPDVHKNCRNKSLLRSRRTGCPPALLGKDVPPLSSFCKPKPKSAFPAQSKSLPSAKGKQSPPGPG | not soluble
8 | SLTRAVAALLPDGKRLHLQHGPIDLIIGAEGGPGAREAAFVTATARFETVLAELVGELPLLKTELAPDAPLPLGPVARRMDTACRPLMALRLTRMAAVAGAVADEVLAAMLSSTPLTRAYVNNGGDIALHLTGDTRFTLAMATPDGRDLGRISLGTGDRIGGIATSGLGGRSLSLGIAESVTVLAPSAAGADAAATLIANATDLPGHPAIRRAPANTVKDDSDLGQRPVVTHCGPLDRNEVLHALENGRKLAVEMIANGHIRSAHLSLRGQSCQAGAIPVIAPERRLALA | soluble
9 | SLVAVIGCCHGELNRLYMEVEKYENEKNEKVDLILCCGDMQTIRDENDLQDMAVKSHRSKKGDFWEYYEGLKKAPKLTIFIGGNHETPNVLIPLYYGGWVAPNIFYLGSSGVIRVGDVRVAGISGIYKNYDHFRGYYESKPFTEESKRSWYHIRWLEIQKLLLIENIKSNFLGSTESRKVDVMISHDWPNGIERFGNLNYLIRRKPYLKEDIELGRLGIPGCIELIEHLRPTFWFSGHHHCFFDASIEFENQLYSSEFRAIDKFKNSNSPVRYFDINSNKNDVRIYLDFEWLTILRSVKANIPKGNFTIDKNSIPKLSGPTKSDIDAIYKNLKEVIGDFDENHYEWPLWGQANGNFKNLQDQYNFINRIIEEG | not soluble
10 | SLVKGESGHQAVSGIAIQRDLAIIEVDKEHLSSATKQCQMLGIDIWNVIEETERTGIMIKQEACAKFDLVFSDKIRNSEAVSLLTAVGLEANGMVEHACGLLAQQDIAINFCATNALTMMLVLPPESVDTAANILHDAYITSSEALNIQQKHAFLG | not soluble
11 | SLVPRVMSTQHPDNARIPFFAASEVLNGEDEVREAYYVFSHFKCDEQMWDFEGKEADAHIVRKLLSSYYDFFSSRPLGKDFRLTMRVPNPEIEKGEAKLLAETLEMIPRSYDYVRSLGIEHPPIFEVILPMTRSAEEVMKVHAFYRDFVAGKGRFELLGEKVSDWLGDFLPEEIKVIPLFEDRDSLMRAAEISERYAEWAELDELRVFLARSDPAMNYGFVAATIYVKKALYDLSQLGISTYPILGVGSCPFRGGFSPKNLSVLDEFPSVYTFTVQSAFKYDYEFGDVRRAIKRAKEAARRKSDYVDEEHLQVAEKLKDGYRRRIAKIAEIVNRISSRIPRRRMRKLHVGLFGYSRGEEIKLPRAITFCASLYSIGLPSEIIGIAEMSDKDYEAVCEVFKNFDGMMESAMSLFNPESLKIVDLSMDFERAKELFGYEPDERHLEKTNEIIKQIDGDIKNLVVEAGILRGFLG | soluble
12 | SLWQPQTGDIIFQISRSSQSKAIQLATHSDYSHTGMLVMRNKKPYVFEAVGPVKYTPLKQWIAHGEKGKYVVRRVEGGLSVEQQQKLAQTAKRYLGKPYDFSFSWSDDRQYCSEVVWKVYQNALGMRVGEQQKLKEFDLSNPLVQAKLKERYGKNIPLEETVVSPQAVFDAPQLTTVAKEWPLFSW | soluble
13 | SLYMDTAVSPFYFVSNAPRELLDGVSQTLASRDQLELENRALRQELLLKNSELLMLGQYKQENARLRELLGSPLRQDEQKMVTQVISTVNDPYSDQVVIDKGSVNGVYEGQPVISDKGVVGQVVAVAKLTSRVLLICDATHALPIQVLRNDIRVIAAGNGCTDDLQLEHLPANTDIRVGDVLVTSGLGGRFPEGYPVAVVSSVKLDTQRAYTVIQARPTAGLQRLRYLLLLWGADRNGANPMTPEEVHRVANERLMQMMPQVLPSPDAMGPKLPEPATGIAQPTPQQPATGNAATAPAAPTQPAANRSPQRATPPQSGAQPPARAPGGQ | soluble
